Here are results for 1 molecule from patent US20210101954A1 (EUREKA THERAPEUTICS, published 2021).

The target of the experiment is T1, CD19 (human, UniProt P15391 20-556).
T1 construct: whole, on cells; also called CD19 on NALM6, Raji, K562-CD19 and K562-CD19/CD22 cells
T1 sequence (looked up): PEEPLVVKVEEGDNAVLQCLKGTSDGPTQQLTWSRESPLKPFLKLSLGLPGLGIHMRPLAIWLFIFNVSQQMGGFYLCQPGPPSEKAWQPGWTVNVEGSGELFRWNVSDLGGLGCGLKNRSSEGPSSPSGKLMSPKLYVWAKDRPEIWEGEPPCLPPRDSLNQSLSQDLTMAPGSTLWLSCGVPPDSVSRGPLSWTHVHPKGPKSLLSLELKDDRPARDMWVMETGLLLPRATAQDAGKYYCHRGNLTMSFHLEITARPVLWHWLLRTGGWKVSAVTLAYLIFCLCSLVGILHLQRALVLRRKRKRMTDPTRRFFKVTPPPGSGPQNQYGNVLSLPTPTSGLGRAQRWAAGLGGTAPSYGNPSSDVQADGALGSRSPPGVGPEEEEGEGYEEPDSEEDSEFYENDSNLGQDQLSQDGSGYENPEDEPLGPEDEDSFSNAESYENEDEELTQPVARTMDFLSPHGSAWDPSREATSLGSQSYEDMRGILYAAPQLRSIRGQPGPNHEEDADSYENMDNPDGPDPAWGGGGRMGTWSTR
Nature of the experiment: told from antigen-specific IFN-γ release of transduced T cells on CD19+ and/or CD22+ cell lines. An excerpt: Primary T cells were mock-transduced or transduced with a lentiviral vector encoding the anti-CD19 anti-CD22 caTCR-7-2a construct. The transduced T cells were mixed with K562 (CD19 CD22 double negative), K562-CD22 (K562 transduced with CD22), K562-CD19 (K562 transduced with CD19), Raji (which expresses both CD19 and CD22), or Raji CD19 K/O (Raji with CD19 knocked out) cells at an effector-to-target ratio of 2.5:1. T-cells secrete IFN-γ when activated by TCR engagement with target ligand. The cytokine release levels of IFN-γ were measured and used as an indicator of the receptor's signaling potential (the higher levels, the higher the receptor's signaling potential and cytotoxic T cell activity). Cytokine concentrations were measured after 16 hours of co-culture using the Magpix multiplex system (Luminex) with the Bio-plex Pro Human Cytokine 8-plex Assay (BioRad).
T cells expressing the anti-CD19 anti-CD22 caTCR-7-2a construct specifically activated IFN-γ secretion when incubated with K562 expressing either CD19 or CD22 antigens. […] In vitro killing

B1: anti-CD19 anti-CD22 caTCR-7-2a (other)
chain 1: DIQLTQSPSSLSTSVGDRVTITCQASHDIRNYLNWYQQKPGKAPNLLIYAASNLQTGVPSRFSGRGSGTDFTLTISSLQPEDIATYYCQQYDGLPLTFGQGTRLEIKRGGGGSEVQLVQSGAEVKKPGESLKISCKGSGYSFTSYWIGWVRQMPGKGLEWMGIIYPGDSDTRYSPSFQGQVTISADKSISTAYLQWSSLKASDTAMYYCARQVWGWQGGMYPRSNWWYNLDSWGQGTLVTVSSASTKGPSVFPLAPSSKSTSGGTAALGCLVKDYFPEPVTVSWNSGALTSGVHTFPAVLQSSGLYSLSSVVTVPSSSLGTQTYICNVNHKPSNTKVDKRVEPKSCEVKTDSTDHVKPKETENTKQPSKSCHKPKAIVHTEKVNMMSLTVLGLRMLFAKTVAVNFLLTAKLFFL
chain 2: QVQLVESGGGLVQPGGSLRLSCAASGFTFSNYAMSWVRQAPGKGLEWVSSISGSGGSTYYADSVKGRFTISRDTSKNTLYLQMNSLRAEDTAVYYCARYGSAAWMDSWGQGTLVTVSSGGGGSLPVLTQPPSVSVAPGKTARITCGGNNIGSKSVHWYQQKPGQAPVLVVYDDSDRPSGIPERFSGSNSGNTATLTISRVEAGDEADYYCQVWDSSSDYVVFGGGTKLTVLGQPKANPTVTLFPPSSEELQANKATLVCLISDFYPGAVTVAWKADGSPVKAGVETTKPSKQSNNKYAASSYLSLTPEQWKSHRSYSCQVTHEGSTVEKTVAPTECSPIKTDVITMDPKDNCSKDANDTLLLQLTNTSAYYMYLLLLLKSVVYFAIITCCLLRRTAFCCNGEKS
notes: Bispecific chimeric antibody-TCR construct expressed on transduced primary T cells
Turning to B1, the binding result is reported as “binds”.
